Results from paper doi:10.1101/2025.07.08.663703, “Recruitment of Mre11 to recombination sites during meiosis” (bioRxiv, 2025).

Columns and labels:
Mer2 [1] = assay: In vitro colocalization of Mre11 with Mer2 condensates; format: binding, S. cerevisiae; details: 200 nM Alexa594Mer2 and eGFPMre11, assembled separately on DNA then mixed 1:1 for 30 min
Description: Proteins were diluted to a 10× stock of their appropriate working concentrations in their respective storage buffers. […] Unless specified otherwise, all reactions contained 400 nM ^Alexa488Mre11 or 100 nM ^eGFPMRX. A typical 20 μL binding reaction contained 2 μL protein of 10× stock of indicated concentration, 10 μL of 2× reaction buffer, and 150 ng of supercoiled pUC19 (5.7 nM). Typical reactions were assembled at 30°C for 30 mins with gentle mixing every 5 mins, unless mentioned otherwise. 5 μL was dropped onto a microscope slide and covered with a coverslip. All images were captured on a Zeiss Axio Observer with a 100×/1.4 NA oil immersion objective except for images provided in Figure 4G which were captured on Leica Stellaris DMI 8 confocal microscope with a 63x/1.2 NA water immersion objective. Images were analyzed with ImageJ using a custom-made script. In brief, 129.24 × 129.24-μm (2048 × 2048-pixel) images were thresholded to mean intensity of the background plus three times the standard deviation of the background. Masked foci were counted and the intensity inside the focus mask was integrated. Data points represent averages of at least 8–10 images per sample. Data were analyzed using Graphpad Prism 10.4.0.

plasmid DNA (pUC19) = assay: In vitro condensation of Mre11 truncations with plasmid DNA; details: eGFP-tagged protein, 200 nM Mre11 for ΔIDR and ΔC49
Description: Proteins were diluted to a 10× stock of their appropriate working concentrations in their respective storage buffers. Reactions were performed in a buffer containing 25 mM HEPES-HCl (pH 7.5), 2 mM DTT, 1 mg/ml BSA, 5% glycerol, 5 mM MgCl2, 5% PEG-3350, and NaCl. Considering the salt contributed by the protein dilution buffer, final concentration of NaCl in a reaction was adjusted to 120 mM. Unless specified otherwise, all reactions contained 400 nM ^Alexa488Mre11 or 100 nM ^eGFPMRX. A typical 20 μL binding reaction contained 2 μL protein of 10× stock of indicated concentration, 10 μL of 2× reaction buffer, and 150 ng of supercoiled pUC19 (5.7 nM). Typical reactions were assembled at 30°C for 30 mins with gentle mixing every 5 mins, unless mentioned otherwise. 5 μL was dropped onto a microscope slide and covered with a coverslip. All images were captured on a Zeiss Axio Observer with a 100×/1.4 NA oil immersion objective except for images provided in Figure 4G which were captured on Leica Stellaris DMI 8 confocal microscope with a 63x/1.2 NA water immersion objective. Images were analyzed with ImageJ using a custom-made script. […] Masked foci were counted and the intensity inside the focus mask was integrated. […] Data were analyzed using Graphpad Prism 10.4.0.

pUC19 plasmid = assay: Gel shift assay of Mre11 and truncations; format: binding
Description: Proteins were diluted to their appropriate working concentrations in their respective storage buffers. […] Reactions were assembled at 30°C for 30 mins and resolved in a 1% agarose (SeaKem LE Agarose, Lonza) at 60 V for 120 mins at 4°C. Gels were stained with SYBR Gold Nucleic Acid Gel Stain (S11497, Invitrogen) for 40 mins and visualized with Amersham Typhoon biomolecular imager (Cytiva).

Mer2 [2] = assay: Co-expression NiNTA pulldown of MBP-Mre11-C49 (prey) with HisSUMO-Mer2 (bait); format: binding, S. cerevisiae; details: co-expression in E. coli, anti-MBP elution/input signal normalized to wild type, at least seven independent samples
Description: The vector for expression of ^MBPMre11-C49 and ^HisSUMOMer2 (pCCB1040) was based on a pET-Duet1 vector with the sequence coding for ^MBPMre11-C49 cloned within the first position (SacI site) and the sequence coding for ^HisSUMOMer2 cloned at the second position (XhoI site). The EQEK mutations and LLK mutations were introduced by PCR amplification of pCCB1040 with primers cb1561 and cb1562, and pp84 and pp85, followed by phosphorylation and self-ligation to yield plasmids pry59 and pry61, respectively.
Wild-type and mutant MBP-tagged Mre11-C49 and HisSUMO-tagged Mer2 were co-expressed in 50 mL of E. coli BL21 cultures and purified by affinity chromatography on Ni-NTA resin following a procedure similar to that described above. Briefly, cells were lysed by sonication and centrifuged at maximum speed for 30 mins at 4°C on a table-top centrifuge. A small fraction of the supernatant was collected as ‘Input’ and the remainder was incubated with 120 μL Ni-NTA resin, pre-equilibrated with wash buffer (25 mM HEPES pH 7.5, 20 mM imidazole, 0.1 mM DTT, 0.1 mM PMSF, 10% glycerol), for 1 hour on a rotating wheel at 4°C. The resin was washed twice with 2 ml in batch and five times with 2 ml on column before eluting with 250 μL of 500 mM imidazole in wash buffer. […]

B1: Mre11-ΔC49: Mre11 with C-terminal 49 residues (residues 644–692) deleted (protein, UniProt P32829 1-643, looked up, fragment)
chain: MDYPDPDTIRILITTDNHVGYNENDPITGDDSWKTFHEVMMLAKNNNVDMVVQSGDLFHVNKPSKKSLYQVLKTLRLCCMGDKPCELELLSDPSQVFHYDEFTNVNYEDPNFNISIPVFGISGNHDDASGDSLLCPMDILHATGLINHFGKVIESDKIKVVPLLFQKGSTKLALYGLAAVRDERLFRTFKDGGVTFEVPTMREGEWFNLMCVHQNHTGHTNTAFLPEQFLPDFLDMVIWGHEHECIPNLVHNPIKNFDVLQPGSSVATSLCEAEAQPKYVFILDIKYGEAPKMTPIPLETIRTFKMKSISLQDVPHLRPHDKDATSKYLIEQVEEMIRDANEETKQKLADDGEGDMVAELPKPLIRLRVDYSAPSNTQSPIDYQVENPRRFSNRFVGRVANGNNVVQFYKKRSPVTRSKKSGINGTSISDRDVEKLFSESGGELEVQTLVNDLLNKMQLSLLPEVGLNEAVKKFVDKDEKTALKEFISHEISNEVGILSTNEEFLRTDDAEEMKALIKQVKRANSVRPTPPKENDETNFAFNGNGLDSFRSSNREVRTGSPDITQSHVDNESRITHISQAESSKPTSKPKRVRTATKKKIPAFSDSTVISDAENELGDNNDAQDDVDIDENDIIMVSTDEEDA
- colocalization with Mer2 (Mer2 [1]): strongly reduced colocalization as compared to wild-type Mre11
- condensate formation in vitro (plasmid DNA (pUC19)): strongly reduced Mre11 foci intensity
- species of reduced electrophoretic mobility (pUC19 plasmid; 1 nM pUC19, higher protein concentration): absent

B2: Mre11 (protein)
chain: MDYPDPDTIRILITTDNHVGYNENDPITGDDSWKTFHEVMMLAKNNNVDMVVQSGDLFHVNKPSKKSLYQVLKTLRLCCMGDKPCELELLSDPSQVFHYDEFTNVNYEDPNFNISIPVFGISGNHDDASGDSLLCPMDILHATGLINHFGKVIESDKIKVVPLLFQKGSTKLALYGLAAVRDERLFRTFKDGGVTFEVPTMREGEWFNLMCVHQNHTGHTNTAFLPEQFLPDFLDMVIWGHEHECIPNLVHNPIKNFDVLQPGSSVATSLCEAEAQPKYVFILDIKYGEAPKMTPIPLETIRTFKMKSISLQDVPHLRPHDKDATSKYLIEQVEEMIRDANEETKQKLADDGEGDMVAELPKPLIRLRVDYSAPSNTQSPIDYQVENPRRFSNRFVGRVANGNNVVQFYKKRSPVTRSKKSGINGTSISDRDVEKLFSESGGELEVQTLVNDLLNKMQLSLLPEVGLNEAVKKFVDKDEKTALKEFISHEISNEVGILSTNEEFLRTDDAEEMKALIKQVKRANSVRPTPPKENDETNFAFNGNGLDSFRSSNREVRTGSPDITQSHVDNESRITHISQAESSKPTSKPKRVRTATKKKIPAFSDSTVISDAENELGDNNDAQDDVDIDENDIIMVSTDEEDASYGLLNGRKTKTKTRPAASTKTASRRGKGRASRTPKTDILGSLLAKKRK
modifications: left off: Gal4 activation domain (from the vector pGAD-C1), end not stated, kept
- colocalization with Mer2 (Mer2 [1]): nearly absolute colocalization

B3: Mer2-EQEK: Mer2 with residues E50, Q54, E57, and K61 mutated to alanine (protein)
chain: MVARGRTDEISTDVSEANSEHSLMITETSSPFRSIFSHSGKVANAGALEASDKAILAWAGALELESMELRENSDKLIKVLNENSKTLCKSLNKFNQLLEQDAATNGNVKTLIKDLASQIENQLDKVSTAMLSKGDEKKTKSDSSYRQVLVEEISRYNSKITRHVTNKQHETEKSMRCTQEMLFNVGSQLEDVHKVLLSLSKDMHSLQTRQTALEMAFREKADHAYDRPDVSLNGTTLLHDMDEAHDKQRKKSVPPPRMMVTRSMKRRRSSSPTLSTSQNHNSEDNDDASHRLKRAARTIIPWEELRPDTLESEL
modifications: left off: His, end not stated, kept | SUMO, end not stated, kept
notes: Mer2 with residues E50, Q54, E57, and K61 mutated to alanine
- interaction of Mre11-C49 and Mer2 in pulldown (anti-MBP immunoblot) (Mer2 [2]): strongly decreased the interaction between the two partners

B4: Mre11^IDR: eGFP-tagged Mre11-IDR (524-677) (protein, UniProt P32829 524-677, looked up, fragment)
chain: NSVRPTPPKENDETNFAFNGNGLDSFRSSNREVRTGSPDITQSHVDNESRITHISQAESSKPTSKPKRVRTATKKKIPAFSDSTVISDAENELGDNNDAQDDVDIDENDIIMVSTDEEDASYGLLNGRKTKTKTRPAASTKTASRRGKGRASRT
modifications: eGFP tag
- condensate formation in vitro (plasmid DNA (pUC19)): failed to form condensates
- DNA binding (pUC19 plasmid; 1 nM pUC19, 25 mM HEPES pH 7.5, 5 mM EDTA, 100 mM NaCl, 30°C 30 min, two independent experiments for truncations): reduced DNA binding as compared to the WT or Mre11^ΔIDR
